Measurements taken from patent US20160017018A1 (GENERAL HOSPITAL, published 2016).

Biological target: T1, human CD80 (human, UniProt P33681 35-288)
T1 construct: whole, on cells; also called human CD80-expressing acute myelogenous leukemia cell line (Cat#CRL-2740, ATCC)
T1 sequence (looked up): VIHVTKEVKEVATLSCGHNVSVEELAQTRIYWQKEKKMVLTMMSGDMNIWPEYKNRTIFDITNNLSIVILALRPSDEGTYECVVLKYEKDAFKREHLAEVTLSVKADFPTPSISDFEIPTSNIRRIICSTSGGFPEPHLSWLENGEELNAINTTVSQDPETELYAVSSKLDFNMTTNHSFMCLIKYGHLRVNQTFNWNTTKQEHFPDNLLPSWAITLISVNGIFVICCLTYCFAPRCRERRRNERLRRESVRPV
Assay: flow cytometry on human CD80-expressing AML cells; grade = binding percentage of the wild-type, ++++ (100%)
From the text: FIGS. 1A-C. […] PE-SA only; biotinylated protein control [porcine CD3εγ ectodomain single-chain fusion protein (pCD3εγ)] […] B) Bar graph presentation of the mean fluorescence intensity (MFI) from flow cytometry binding analysis data as described in A). Different concentrations of biotinylated pCD3εγ were used as non-specific fluorescence control. Error bars are included based on the calculated standard deviation. […] The concentration of the competitor is indicated. All figures of 1A-C are representatives of multiple individual experiments.

B1: Non-N-Glycosylated soluble human CTLA-4-6×His (receptor)
chain: KAMHVAQPAVVLASSRGIASFVCEYASPGKATEVRVTVLRQADSQVTEVCAATYMMGNELTFLDDSICTGTSSGNQVALTIQGLRAMDTGLYICKVELMYPPPYYLGIGAGTQIYVIDPEPCPDSDHHHHHH
modifications: biotinylated for the direct binding stain (sites not given); unlabeled in the blocking assay
notes: Expressed in Pichia pastoris; also called wild-type soluble human CTLA-4; human CTLA-4 wild-type
binding result: binds
